The results in this text go back to patent publication US20040033600A1.

Holding throughout (assay): cell-based or functional assay
Assay [1] deals with VP16CfUSPDEF (VP16 activation domain fused to the D, E and F domains of Choristoneura fumiferana USP) (Choristoneura fumiferana).
For assay [2], the target named is VP16MmRXRDEF (VP16 activation domain fused to the DEF domains of mouse RXR) (Mus musculus).
In assay [3] the target is VP16CfEcRCDEF (VP16 activation domain fused to CfEcRCDEF) (Choristoneura fumiferana).
In assay [4] the target is VP16DmEcRCDEF (VP16 activation domain fused to DmEcRCDEF) (Drosophila melanogaster).
For assay [5], the target named is Full length MmRXR (mouse Mus musculus RXRalpha) (Mus musculus) (UniProt P28700).
Chain of Full length MmRXR (mouse Mus musculus RXRalpha) (Mus musculus) (P28700 whole entry): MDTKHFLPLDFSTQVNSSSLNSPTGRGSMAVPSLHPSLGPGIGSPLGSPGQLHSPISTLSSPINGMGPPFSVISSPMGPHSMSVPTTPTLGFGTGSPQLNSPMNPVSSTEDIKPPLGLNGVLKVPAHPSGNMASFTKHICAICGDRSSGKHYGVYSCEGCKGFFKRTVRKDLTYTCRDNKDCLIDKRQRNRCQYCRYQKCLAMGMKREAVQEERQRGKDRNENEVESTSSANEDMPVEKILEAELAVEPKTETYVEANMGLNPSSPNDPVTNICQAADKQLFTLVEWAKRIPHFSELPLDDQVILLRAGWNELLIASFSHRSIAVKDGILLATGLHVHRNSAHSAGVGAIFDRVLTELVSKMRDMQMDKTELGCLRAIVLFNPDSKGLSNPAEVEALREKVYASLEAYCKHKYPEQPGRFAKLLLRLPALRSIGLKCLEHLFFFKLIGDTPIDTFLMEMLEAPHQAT

In assay [1], “GAL4CfEcRDEF (GAL4 DNA binding domain fused to the D, E and F domains of Choristoneura fumiferana EcR)” gave a Mean Fold Activation Through N-(2-ethyl-3-methoxybenzoyl)-N'-(3,5-dimethylbenzoyl)-N'-t-butylhydrazine; pGAL4RELuc reporter, 3T3 cells (switch 1.2) of 2 fold; a Mean Fold Activation Through N-(2-ethyl-3-methoxybenzoyl)-N'-(3,5-dimethylbenzoyl)-N'-t-butylhydrazine; pGAL4RELuc reporter, 293 cells (switch 1.2) of 2 fold; a Mean Fold Activation with 50 µM N-(2-ethyl-3-methoxybenzoyl)-N'-(3,5-dimethylbenzoyl)-N'-t-butylhydrazine; pGAL4RELuc reporter, CHO cells (switch 1.2) of 2 fold. In assay [2], this substance yielded a Mean Fold Activation Through N-(2-ethyl-3-methoxybenzoyl)-N'-(3,5-dimethylbenzoyl)-N'-t-butylhydrazine; pGAL4RELuc reporter, 3T3 cells (switch 1.1) of 1120 fold; a Mean Fold Activation Through N-(2-ethyl-3-methoxybenzoyl)-N'-(3,5-dimethylbenzoyl)-N'-t-butylhydrazine; pGAL4RELuc reporter, 293 cells (switch 1.1) of 125 fold; a Mean Fold Activation with 50 µM N-(2-ethyl-3-methoxybenzoyl)-N'-(3,5-dimethylbenzoyl)-N'-t-butylhydrazine; pGAL4RELuc reporter, CHO cells (switch 1.1) of 267 fold; a Mean Fold Induction at 1.0 µM Concentration of Muristerone A; reporter gene, 3T3 cells (switch 1.1) of 1 fold. In assay [2], this substance displayed a Mean Fold Induction at 1.0 µM Concentration of N'-(3,4-(1,2-ethylenedioxy)-2-methylbenzoyl)-N'-(3,5-dimethylbenzoyl)-N'-tert-butylhydrazine; reporter gene, 3T3 cells (switch 1.1) of 601 fold; a Mean Fold Induction at 1.0 µM Concentration of N-(2-ethyl-3-methoxybenzoyl)-N'-(3,5-dimethylbenzoyl)-N'-tert-butylhydrazine; reporter gene, 3T3 cells (switch 1.1) of 116 fold; a Mean Fold Induction at 1.0 µM Concentration of Ponasterone A; reporter gene, 3T3 cells (switch 1.1) of 1 fold.

Consider “GAL4MmRXRDEF (GAL4 DNA binding domain fused to MmRXRDEF)”, for which, in assay [3], the Mean Fold Activation Through N-(2-ethyl-3-methoxybenzoyl)-N'-(3,5-dimethylbenzoyl)-N'-t-butylhydrazine; pGAL4RELuc reporter, 3T3 cells (switch 1.3) amounted to 47 fold; the Mean Fold Activation Through N-(2-ethyl-3-methoxybenzoyl)-N'-(3,5-dimethylbenzoyl)-N'-t-butylhydrazine; pGAL4RELuc reporter, 293 cells (switch 1.3) was 17 fold; the Mean Fold Activation with 50 µM N-(2-ethyl-3-methoxybenzoyl)-N'-(3,5-dimethylbenzoyl)-N'-t-butylhydrazine; pGAL4RELuc reporter, CHO cells (switch 1.3) is 85 fold; the Mean Fold Induction at 1.0 µM Concentration of Muristerone A; reporter gene, 3T3 cells (switch 1.3) turned out to be 1 fold. In assay [3], this substance showed a Mean Fold Induction at 1.0 µM Concentration of N'-(3,4-(1,2-ethylenedioxy)-2-methylbenzoyl)-N'-(3,5-dimethylbenzoyl)-N'-tert-butylhydrazine; reporter gene, 3T3 cells (switch 1.3) of 54 fold; a Mean Fold Induction at 1.0 µM Concentration of N-(2-ethyl-3-methoxybenzoyl)-N'-(3,5-dimethylbenzoyl)-N'-tert-butylhydrazine; reporter gene, 3T3 cells (switch 1.3) of 71 fold; a Mean Fold Induction at 1.0 µM Concentration of Ponasterone A; reporter gene, 3T3 cells (switch 1.3) of 1 fold. In assay [4], this substance gave a Mean Fold Activation Through N-(2-ethyl-3-methoxybenzoyl)-N'-(3,5-dimethylbenzoyl)-N'-t-butylhydrazine; pGAL4RELuc reporter, 3T3 cells (switch 1.4) of 269 fold; a Mean Fold Activation Through N-(2-ethyl-3-methoxybenzoyl)-N'-(3,5-dimethylbenzoyl)-N'-t-butylhydrazine; pGAL4RELuc reporter, 293 cells (switch 1.4) of 3 fold; a Mean Fold Activation with 50 µM N-(2-ethyl-3-methoxybenzoyl)-N'-(3,5-dimethylbenzoyl)-N'-t-butylhydrazine; pGAL4RELuc reporter, CHO cells (switch 1.4) of 312 fold.

In assay [3], “GAL4CfUSPDEF (GAL4 DNA binding domain fused to CfUSPDEF)” displayed a Mean Fold Activation Through N-(2-ethyl-3-methoxybenzoyl)-N'-(3,5-dimethylbenzoyl)-N'-t-butylhydrazine; pGAL4RELuc reporter, 3T3 cells (switch 1.5) of 3 fold; a Mean Fold Activation Through N-(2-ethyl-3-methoxybenzoyl)-N'-(3,5-dimethylbenzoyl)-N'-t-butylhydrazine; pGAL4RELuc reporter, 293 cells (switch 1.5) of 2 fold; a Mean Fold Activation with 50 µM N-(2-ethyl-3-methoxybenzoyl)-N'-(3,5-dimethylbenzoyl)-N'-t-butylhydrazine; pGAL4RELuc reporter, CHO cells (switch 1.5) of 2 fold.

In the case of “CfVgRXR EcR component: truncated CfEcR comprising a partial A/B domain and the complete CDEF domains, fused to VP16AD”, in assay [5], the Mean Fold Activation Through N-(2-ethyl-3-methoxybenzoyl)-N'-(3,5-dimethylbenzoyl)-N'-t-butylhydrazine; pIND(SP1)LacZ reporter, 3T3 cells (switch 1.9) stood at 19 fold; the Mean Fold Activation Through N-(2-ethyl-3-methoxybenzoyl)-N'-(3,5-dimethylbenzoyl)-N'-t-butylhydrazine; pIND(SP1)LacZ reporter, 293 cells (switch 1.9) came to 12 fold; the Mean Fold Activation with 50 µM N-(2-ethyl-3-methoxybenzoyl)-N'-(3,5-dimethylbenzoyl)-N'-t-butylhydrazine; pIND(SP1)LacZ reporter, CHO cells (switch 1.9) worked out at 27 fold.

In assay [5], “Drosophila melanogaster EcR with a modified DNABD fused to VP16AD (EcR component of the DmVgRXR system, Invitrogen)” showed a Mean Fold Activation Through N-(2-ethyl-3-methoxybenzoyl)-N'-(3,5-dimethylbenzoyl)-N'-t-butylhydrazine; pIND(SP1)LacZ reporter, 3T3 cells (switch 1.8) of 21 fold; a Mean Fold Activation Through N-(2-ethyl-3-methoxybenzoyl)-N'-(3,5-dimethylbenzoyl)-N'-t-butylhydrazine; pIND(SP1)LacZ reporter, 293 cells (switch 1.8) of 21 fold; a Mean Fold Activation with 50 µM N-(2-ethyl-3-methoxybenzoyl)-N'-(3,5-dimethylbenzoyl)-N'-t-butylhydrazine; pIND(SP1)LacZ reporter, CHO cells (switch 1.8) of 14 fold.
